Measurements taken from patent US20250027068.

B1: PRT-85 (protein)
chain: MANQEIRYSEVTPKTITSVWTKGVTPPADFTQGEDVFHAPYKPNQGWYDINKTFNGKDNLLCGAATAGNMLHWWFDQNKEQIEAYLKKHPEKQKIMFGDQELLDVRKAINTKDDQTDSKLFNYFKDKAFPNLSARRLGVMPDHVLDMFINGYRLNVTKTQTTDVNRTYQTKDKRGGFFDAVFTRGDQSKLLTNRHDFKEKNLKEISDLIKKELTEGKALGLSHTYANVRINHVINLWGADFDSEGNLKAIYVTDSDSNASIGMKKYYVGVNSAGKVAISAKEIKGENIGAQVLGLYTLSTGQDIWNQTN
B2: PRT-674 (protein)
chain: MQITSVWTKGVTPPTMEQFRYNNYDVFHAPYLPGQGWYDITKAFDGGDNLLCGAATAGNMLHWWFDQNKEEIEAYLSKYPEKQKIIFNNQELFDLRKAINSKDSQTNSELFNYFRDKAFGNLSARQKGVMPDLVLDMFINGYYLNLNKTQSTDVNRPYQDPDKRGGIFDDVFKEGDQTKLLTARHDLSNGGLDDISTIIKQELQSGRALALSHTYANVSYSHVINLWGADFDAEGNLEAIYVTDSDDDQSIGMKKYKVGKNASGHVRISAKKIEDENIGAQVLGLFTLSLGKEIWQKLSLEHHHHHH
B3: PRT-86 (protein)
chain: MANQEIRYSEEDPKHVTSVWTKGVTPPTDFTQGEDVLHAPYIANQGWYDITKTFNGKDDLLCGAATAGNMLHWWFDQNKEEIENYLKKHPEKQKIMFGDQELLDVRKVINTKDSQTNSKLFNYFREKAFPNLSARRLGVMPDLVLDMFINGYYLNVTKTQTTDVNRTYQTKDKRGGIFDAVFTRGDQTKLLTNRHDFKEKTLNEISDLIKQELQEGKALGLSHTYANVRINHVINLWGADFDSNGNLEAIYVTDSDANASIGMKKYFVGKNSAGKVAISAKEIKDDNIGAQVLGLFTLSTGQDIWNQTN
B4: PRT-672 (protein)
chain: MQITSVWTKGVTPPTPEQFTYQNEDVFHAPYIANQGWYDITKTFNGKDNLLCGAATAGNMLHWWFDQNKTEIENYLKKHPEKQKIIFNNQEMFDLRKAINTKDSQTNSALFEYFRDKAFPNLSARQLGVMPDHVLDMFINGYYLNVTKTQSTDVNRPYQTKDKRGGIFDHVFTRGDQSKLLTARHDLKNKTLNEISDLIKQELTEGKALALSHTYANVRINHVINLWGADFDAEGNLEAIYVTDSDSNASIGMKKYFVGVNSSGKVAISAKKIEDDNIGAQVLGLFTLSSGQDIWEQLSLEHHHHHH
B5: PRT-87 (protein)
chain: MANQEIRYSEVTPYHITSVWTKGVTPPEQFTQGEDVFHAPYIANQGWYDITKTFNGKDNLLCGAATAGNMLHWWFDQNKEEIERYLKKYPEKQKIMFGDQELLDVRKVINTKDSQTNSKLFEYFRDKAFPNLSARRLGVMPDLVLDMFINGYYLSVTKTQTTDVNRTYGNKDNRGGIFDAVFTRGDQSKLLTNRHDFKEKNLKEISQLIKQELQEGKALALSHTYANVRINHVINLWGADFDSEGNLKAIYVTDSDSNASIGMKKYFVGVNSSGKVAISAKEIEEDNIGAQVLGLFTLSTGQDIWEQTN
B6: PRT-84 (protein)
chain: MANQEIRYSEETPYTVTSVWTKGVTPPTQFIQGEDVFHAPYKANQGWYDITKTFNGKDNLLCGAATAGNMLHWWFDQNKEYIEAYLKKHPEKQKIMFGDQELLDVRKVINTKDSQTDSKLFNYFKDKAFPNLSARRLGVMPDLVLDMFINGYYLNVGKTQTTDVNRTYQEKDKRGGIFDAVFTRGDQSKLLTSRHDFKEKSLKEISDLIKKELTEGKALGLSHTYANVRINHVINLWGADFDSEGNLKAIYVTDSDSDASIGMKKYFVGVNSSGKVAISAKEIEEDNIGAQVLGLFTLSSGQDIWNQTN
B7: PRT-88 (protein)
chain: MANQEIRYSEVTPYHVTSVWTKGVTPPAKFTQGEDVFHAPYVANQGWYDITKTFNGKDDLLCGAATAGNMLHWWFDQNKEKIEAYLKKHPEKQKIMFGDQELLDVRKVINTKGDQTNSELFNYFRDKAFPGLSARRLGVMPDLVLDMFINGYYLNVYKTQTTDVNRTYQEKDRRGGIFDAVFTRGDQSKLLTSRHDFKEKNLKEISDLIKKELTEGKALGLSHTYANVRINHVINLWGADFDSNGNLKAIYVTDSDSNASIGMKKYFVGVNSAGKVAISAKEIKEDNIGAQVLGLFTLSTGQDIWNQTN
B8: PRT-92 (protein)
chain: MANQEIRYSEVTPYTITSVWTKGVTPPADFTQGEDVFHAPYVANQGWYDITKTFNGKDDLLCGAATAGNMLHWWFDQNKEKIEAYLKKHPEKQKIMFGDQELLDVRKAINTKDDQTNSELFNYFRDKAFPNLSARRLGVMPDLVLDMFINGYYLNVYKTQTTDVNRTYQEKDKRGGIFDAVFTRGDQSKLLTSRHDFKEKNLKEISDLIKQELTEGKALGLSHTYANVRINHVINLWGADFDSEGNLKAIYVTDSDSNASIGMKKYFVGVNSAGKVAISAKEIKEDNIGAQVLGLFTLSTGQDIWNQTN
B9: PRT-95 (protein)
chain: MANQEIRYSEVTPYHITSVWTKGVTPPAKFTQGEDVFHAPYVANQGWYDITKTFNGKDDLLCGAATAGNMLHWWFDQNKEKIEAYLKKHPDKQKIMFGDQELLDVRKVINTKGDQTNSELFNYFRDKAFPNLSARRIGVMPDLVLDMFINGYYLNVGKTQTTDVNRTYQEKDKRGGIFDAVFTRGDQSKLLTSRHDFKEKNLKEISDLIKQELTEGKALGLSHTYANVRINHVINLWGADFDSNGNLKAIYVTDSDSNASIGMKKYFVGVNSAGKVAISAKEIEEDNIGAQVLGLFTLSTGQDSWNQTN
B10: PRT-93 (protein)
chain: MANQEIRYSEVTPYHVTSVWTKGVTPPAKFTQGEDVFHAPYVANQGWYDITKTFNGKDDLLCGAATAGNMLHWWFDQNKEKIEAYLKKHPDKQKIMFGDQELLDVRKVINTKDDQTNSELFNYFRDKAFPGLSARRIGVMPDLVLDMFINGYYLNVYKTQTTDVNRTYQEKDRRGGIFDAVFTRGDQSKLLTSRHDFKEKNLKEISDLIKKELTEGKALGLSHTYANVRINHVINLWGADFDSNGNLKAIYVTDSDSNASIGMKKYFVGVNSAGKVAISAKEIKEDNIGAQVLGLFTLSTGQDSWNQTN
B11: PRT-90 (protein)
chain: MANQEIRYSEETPYHVTSVWTKGVTPPAKFTQGEDVFHAPYVANQGWYDITKTFNGKDDLLCGAATAGNMLHWWFDQNKEKIEAYLKKHPEKQKIMFGDQELLDVRKVINTKDDQTNSELFNYFRDKAFPGLSARRLGVMPDLVLDMFINGYYLNVYKTQTTDVNRTYQEKDRRGGIFDAVFTRGDQSKLLTSRHDFKEKTLKEISDLIKKELTEGKALGLSHTYANVRINHVINLWGADFDSNGNLKAIYVTDSDSNASIGMKKYFVGVNSAGKVAISAKEIKEDNIGAQVLGLFTLSTGQDIWNQTN
B12: PRT-89 (protein)
chain: MANQEIRYSEVTPYHVTSVWTKGVTPPAKFTQGEDVFHAPYVANQGWYDITKTFNGKDDLLCGAATAGNMLHWWFDQNKEKIEAYLKKHPEKQKIMFGDQELLDVRKVINTKDDQTNSELFNYFRDKAFPGLSARRLGVMPDLVLDMFINGYYLNVYKTQTTDVNRTYQEKDRRGGIFDAVFTRGDQSKLLTSRHDFKEKNLKEISDLIKKELTEGKALGLSHTYANVRINHVINLWGADFDSNGNLKAIYVTDSDSNASIGMKKYFVGVNSAGKVAISAKEIKEDNIGAQVLGLFTLSTGQDIWNQTN
B13: PRT-91 (protein)
chain: MANQEIRYSEETPYHITSVWTKGVTPPAKFTQGEDVFHAPYVANQGWYDITKTFNGKDDLLCGAATAGNMLHWWFDQNKEKIEAYLKKHPEKQKIMFGDQELLDVRKVINTKDDQTNSELFNYFRDKAFPNLSARRLGVMPDLVLDMFINGYYLNVGKTQTTDVNRTYQEKDKRGGIFDAVFTRGDQSKLLTSRHDFKEKNLKEISDLIKQELTEGKALGLSHTYANVRINHVINLWGADFDSNGNLKAIYVTDSDSNASIGMKKYFVGVNSAGKVAISAKEIEEDNIGAQVLGLFTLSTGQDIWNQTN
B14: PRT-94 (protein)
chain: MANQEIRYSEETPYHVTSVWTKGVTPPAKFTQGEDVFHAPYVANQGWYDITKTFNGKDDLLCGAATAGNMLHWWFDQNKEKIEAYLKKHPDKQKIMFGDQELLDVRKVINTKGDQTNSELFNYFRDKAFPGLSARRIGVMPDLVLDMFINGYYLNVYKTQTTDVNRTYQEKDRRGGIFDAVFTRGDQSKLLTSRHDFKEKTLKEISDLIKKELTEGKALGLSHTYANVRINHVINLWGADFDSNGNLKAIYVTDSDSNASIGMKKYFVGVNSAGKVAISAKEIKEDNIGAQVLGLFTLSTGQDSWNQTN

Molecular target: pooled human IgG (human IgG1,2,3 and 4)

Protein | Enzyme Activity Endpoint Assay: Fab′2 | Enzyme Activity Endpoint Assay: Fc | Enzyme Activity Endpoint Assay: IgG | Enzyme Activity Endpoint Assay: scIgG | Enzyme activity endpoint: Fab′2 | Enzyme activity endpoint: Fc | Enzyme activity endpoint: IgG | Enzyme activity endpoint: scIgG
B1 | 0 ng/µL | 0 ng/µL | 109 ng/µL | 0 ng/µL | – | – | – | –
B2 | – | – | – | – | 462 ng/µL | 0 ng/µL | 891 ng/µL | 12 ng/µL
B3 | 4 ng/µL | 61 ng/µL | 45 ng/µL | 53 ng/µL | – | – | – | –
B4 | – | – | – | – | 775 ng/µL | 443 ng/µL | 73 ng/µL | 0 ng/µL
B5 | 0 ng/µL | 52 ng/µL | 60 ng/µL | 50 ng/µL | – | – | – | –
B6 | 8 ng/µL | 67 ng/µL | 27 ng/µL | 51 ng/µL | – | – | – | –
B7 | 48 ng/µL | 110 ng/µL | 25 ng/µL | 0 ng/µL | – | – | – | –
B8 | 40 ng/µL | 104 ng/µL | 8 ng/µL | 6 ng/µL | – | – | – | –
B9 | 242 ng/µL | 118 ng/µL | 102 ng/µL | 0 ng/µL | – | – | – | –
B10 | 38 ng/µL | 91 ng/µL | 11 ng/µL | 0 ng/µL | – | – | – | –
B11 | 44 ng/µL | 106 ng/µL | 21 ng/µL | 0 ng/µL | – | – | – | –
B12 | 45 ng/µL | 89 ng/µL | 34 ng/µL | 0 ng/µL | – | – | – | –
B13 | 40 ng/µL | 102 ng/µL | 16 ng/µL | 9 ng/µL | – | – | – | –
B14 | 547 ng/µL | 120 ng/µL | 0 ng/µL | 0 ng/µL | – | – | – | –
